From article PMC4357434
One block for each molecule: values may come before it.

Legend:
[1] = molecular target: RFP-tubulin (TagRFP-labeled α-tubulin) (UniProt P68363); assay: FRET or BRET; FRET-iMSD (spatiotemporal image correlation of the FRET signal), TIRF time series at 10 ms resolution, about 60 s, live co-transfected CHO cells, basal condition; characteristic time of binding τb from the fit of G(0,τ)
[2] = molecular target: TRPV1-RFP (Transient Receptor Potential Vanilloid 1 fused at its C-terminus to TagRFP) (UniProt O35433); assay: FRET or BRET; sensitized emission FRET (SE-FRET) imaged in TIRF mode on the membrane of live CHO K1 cells co-transfected with donor- and acceptor-fused proteins; bleed-through corrected; donor-normalised apparent FRET efficiency E D; 37°C
UniProt O35433, sequence (O35433 whole entry, the tested form may be a part): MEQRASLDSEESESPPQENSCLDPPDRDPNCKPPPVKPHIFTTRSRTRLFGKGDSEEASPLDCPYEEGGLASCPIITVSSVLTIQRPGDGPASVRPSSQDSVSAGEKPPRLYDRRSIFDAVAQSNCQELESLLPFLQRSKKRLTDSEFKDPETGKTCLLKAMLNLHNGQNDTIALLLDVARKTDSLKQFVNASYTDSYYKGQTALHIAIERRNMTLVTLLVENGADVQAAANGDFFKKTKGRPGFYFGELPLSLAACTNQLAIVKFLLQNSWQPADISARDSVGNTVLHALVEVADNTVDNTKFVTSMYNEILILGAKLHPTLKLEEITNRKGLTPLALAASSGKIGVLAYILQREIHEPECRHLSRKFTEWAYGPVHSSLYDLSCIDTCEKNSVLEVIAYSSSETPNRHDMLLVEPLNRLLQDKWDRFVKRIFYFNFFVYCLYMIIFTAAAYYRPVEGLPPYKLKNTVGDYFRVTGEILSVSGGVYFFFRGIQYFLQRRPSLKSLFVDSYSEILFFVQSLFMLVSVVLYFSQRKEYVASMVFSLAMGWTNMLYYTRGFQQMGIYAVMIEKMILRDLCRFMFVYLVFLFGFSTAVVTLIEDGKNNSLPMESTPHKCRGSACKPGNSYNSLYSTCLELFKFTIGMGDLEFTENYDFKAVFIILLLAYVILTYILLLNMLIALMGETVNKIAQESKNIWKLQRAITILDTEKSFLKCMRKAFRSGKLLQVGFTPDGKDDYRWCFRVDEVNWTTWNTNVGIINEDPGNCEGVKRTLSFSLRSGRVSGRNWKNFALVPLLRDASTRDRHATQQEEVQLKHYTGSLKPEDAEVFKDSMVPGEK

[3] = molecular target: TRPV1-RFP (Transient Receptor Potential Vanilloid 1 fused at its C-terminus to TagRFP) (UniProt O35433); assay: FRET or BRET; FRET-iMSD (spatiotemporal image correlation of the FRET signal), TIRF time series at 10 ms resolution, about 60 s, live co-transfected CHO cells, basal condition; characteristic time of binding τb from the fit of G(0,τ)
[4] = molecular target: TRPV1-RFP (Transient Receptor Potential Vanilloid 1 fused at its C-terminus to TagRFP) (UniProt O35433); assay: FRET or BRET; acceptor photobleaching FRET in TIRF mode on live co-transfected CHO cells; acceptor bleached at 561 nm; apparent FRET percentage E pb after Stepensky

UniProt P68363, sequence (P68363 whole entry, the tested form may be a part): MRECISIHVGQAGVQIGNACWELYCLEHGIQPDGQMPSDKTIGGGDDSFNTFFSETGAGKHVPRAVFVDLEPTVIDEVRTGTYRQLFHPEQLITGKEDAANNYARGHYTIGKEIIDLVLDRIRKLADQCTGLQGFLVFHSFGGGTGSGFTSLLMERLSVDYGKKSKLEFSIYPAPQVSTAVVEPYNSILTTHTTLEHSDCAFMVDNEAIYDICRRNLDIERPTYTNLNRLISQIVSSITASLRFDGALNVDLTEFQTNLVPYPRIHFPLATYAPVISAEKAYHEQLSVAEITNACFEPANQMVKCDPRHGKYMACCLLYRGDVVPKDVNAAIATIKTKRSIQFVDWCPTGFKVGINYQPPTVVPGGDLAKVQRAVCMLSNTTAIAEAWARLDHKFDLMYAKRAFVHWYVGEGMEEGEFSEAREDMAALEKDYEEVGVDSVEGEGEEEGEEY

- τb (characteristic time of binding) [1]: > 60 s
Molecule: TRPV1-EGFP (from UniProt O35433 1-838) (receptor)

- τb (characteristic time of binding) [3]: 16.4 s
- apparent FRET percentage E pb (acceptor photobleaching) [4]: 11%
B1: Caveolin-1-EGFP (natural protein)
chain: MSGGKYVDSEGHLYTVPIREQGNIYKPNNKAMAEEMSEKQVYDAHTKEIDLVNRDPKHLNDDVVKIDFEDVIAEPEGTHSFDGIWKASFTTFTVTKYWFYRLLSALFGIPMALIWGIYFAILSFLHIWAVVPCIKSFLIEIQCISRVYSIYVHTFCDPFFEAVGKIFSNIRINMQKET
- apparent FRET efficiency E D [2]: 4%

B2: Caveolin-1-YFP (natural protein)
chain: B1 chain
- apparent FRET efficiency E D [2]: 30%
